Measurements reported in article PMC10397247.

T1: O5-bN
T1 chain: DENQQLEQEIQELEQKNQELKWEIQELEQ

T2: O3-bN
T2 chain: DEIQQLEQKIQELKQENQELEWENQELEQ

T3: O8-bN
T3 chain: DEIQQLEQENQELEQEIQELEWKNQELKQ

T4: O7-bN
T4 chain: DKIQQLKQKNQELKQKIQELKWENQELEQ

T5: O6-bN
T5 chain: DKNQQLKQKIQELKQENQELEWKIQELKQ

T6: O4-bN
T6 chain: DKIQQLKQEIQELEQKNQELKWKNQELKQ

T7: O2-bN
T7 chain: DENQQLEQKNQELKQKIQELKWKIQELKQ

T8: O9-bN
T8 chain: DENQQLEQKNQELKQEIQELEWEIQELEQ

T9: O16-bN
T9 chain: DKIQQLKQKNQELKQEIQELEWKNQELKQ

T10: 4H2873-AA
T10 chain: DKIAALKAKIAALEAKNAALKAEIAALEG

T11: 4H775-AA
T11 chain: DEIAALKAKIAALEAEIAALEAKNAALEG

T12: 4H2985-AA
T12 chain: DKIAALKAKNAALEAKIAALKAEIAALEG

T13: 4H390-AA
T13 chain: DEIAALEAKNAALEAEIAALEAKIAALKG

T14: 4H2758-AA
T14 chain: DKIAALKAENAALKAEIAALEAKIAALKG

T15: 4H816-AA
T15 chain: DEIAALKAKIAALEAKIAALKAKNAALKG

T16: 4H278-AA
T16 chain: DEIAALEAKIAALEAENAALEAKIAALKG

T17: 4H2705-AA
T17 chain: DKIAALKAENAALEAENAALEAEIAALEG

T18: 4H87-AA
T18 chain: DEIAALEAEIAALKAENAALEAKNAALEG

T19: 4H2687-AA
T19 chain: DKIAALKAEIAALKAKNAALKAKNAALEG

T20: 4H3625-AA
T20 chain: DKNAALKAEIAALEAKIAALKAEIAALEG

T21: 4H3940-AA
T21 chain: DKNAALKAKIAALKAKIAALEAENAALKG

T22: 4H3409-AA
T22 chain: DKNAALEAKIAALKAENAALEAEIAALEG

T23: 4H3134-AA
T23 chain: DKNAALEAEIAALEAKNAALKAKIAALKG

T24: 4H510-AA
T24 chain: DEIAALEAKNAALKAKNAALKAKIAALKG

T25: P8A-bH
T25 chain: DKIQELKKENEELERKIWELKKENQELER

T26: P9A-bH
T26 chain: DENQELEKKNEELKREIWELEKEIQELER

T27: P7A-bH
T27 chain: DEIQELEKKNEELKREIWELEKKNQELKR


Columns and labels:
O5-bN = molecular target: T1, O5-bN; assay: two-hybrid library CCNG1;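 further: natural log of median RNA to DNA barcode read ratio; higher means stronger binding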
O3-bN = molecular target: T2, O3-bN; assay: two-hybrid library CCNG1;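 further: natural log of median RNA to DNA barcode read ratio; higher means stronger binding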
O8-bN = molecular target: T3, O8-bN; assay: two-hybrid library CCNG1;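 further: natural log of median RNA to DNA barcode read ratio; higher means stronger binding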
O7-bN = molecular target: T4, O7-bN; assay: two-hybrid library CCNG1;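 further: natural log of median RNA to DNA barcode read ratio; higher means stronger binding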
O6-bN = molecular target: T5, O6-bN; assay: two-hybrid library CCNG1
O4-bN = molecular target: T6, O4-bN; assay: two-hybrid library CCNG1
O2-bN = molecular target: T7, O2-bN; assay: two-hybrid library CCNG1
O9-bN = molecular target: T8, O9-bN; assay: two-hybrid library CCNG1
O16-bN = molecular target: T9, O16-bN; assay: two-hybrid library CCNG1
4H2873-AA = molecular target: T10, 4H2873-AA; assay: two-hybrid library CCmax; conditions: mean of both orientations
4H775-AA = molecular target: T11, 4H775-AA; assay: two-hybrid library CCmax; conditions: mean of both orientations
4H2985-AA = molecular target: T12, 4H2985-AA; assay: two-hybrid library CCmax; conditions: mean of both orientations
4H390-AA = molecular target: T13, 4H390-AA; assay: two-hybrid library CCmax; conditions: mean of both orientations
4H2758-AA = molecular target: T14, 4H2758-AA; assay: two-hybrid library CCmax; conditions: mean of both orientations
4H816-AA = molecular target: T15, 4H816-AA; assay: two-hybrid library CCmax; conditions: mean of both orientations
4H278-AA = molecular target: T16, 4H278-AA; assay: two-hybrid library CCmax; conditions: mean of both orientations
4H2705-AA = molecular target: T17, 4H2705-AA; assay: two-hybrid library CCmax; conditions: mean of both orientations
4H87-AA = molecular target: T18, 4H87-AA; assay: two-hybrid library CCmax; conditions: mean of both orientations
4H2687-AA = molecular target: T19, 4H2687-AA; assay: two-hybrid library CCmax
4H3625-AA = molecular target: T20, 4H3625-AA; assay: two-hybrid library CCmax; conditions: mean of both orientations
4H3940-AA = molecular target: T21, 4H3940-AA; assay: two-hybrid library CCmax; conditions: mean of both orientations
4H3409-AA = molecular target: T22, 4H3409-AA; assay: two-hybrid library CCmax; conditions: mean of both orientations
4H3134-AA = molecular target: T23, 4H3134-AA; assay: two-hybrid library CCmax; conditions: mean of both orientations
4H510-AA = molecular target: T24, 4H510-AA; assay: two-hybrid library CCmax; conditions: mean of both orientations
P8A-bH = molecular target: T25, P8A-bH; assay: two-hybrid library CCNG1
P9A-bH = molecular target: T26, P9A-bH; assay: two-hybrid library CCNG1
P7A-bH = molecular target: T27, P7A-bH; assay: two-hybrid library CCNG1

interaction score (O5-bN)	interaction score (O3-bN)	interaction score (O8-bN)	interaction score (O7-bN)	interaction score (O6-bN)	interaction score (O4-bN)	interaction score (O2-bN)	interaction score (O9-bN)	Binder	also measured
-0.76	-1.2	0.817	-0.634	-1.5	-1.97	-0.646	0.719	DENQQLEQKNQELKQKIQELKWKIQELKQ [O2-bN]	–
-2.84	-0.113	0.95	-0.333	0.821	-0.0984	-0.944	-0.976	DKIQQLKQKNQELKQEIQELEWKNQELKQ [O16-bN]	interaction score (O16-bN): 0.145
–	–	–	–	–	–	–	–	DKIAALKAEIAALKAKNAALKAKNAALEG [4H2687-AA]	interaction score (4H2873-AA): -1.74; interaction score (4H775-AA): -0.777; interaction score (4H2985-AA): -1.59; interaction score (4H390-AA): -1.43; interaction score (4H2758-AA): -1.78; interaction score (4H816-AA): -1.46; interaction score (4H278-AA): 1.88; interaction score (4H2705-AA): -1.7; interaction score (4H87-AA): 1.53; interaction score (4H2687-AA): -0.386; interaction score (4H3625-AA): -0.539; interaction score (4H3940-AA): -1.7; interaction score (4H3409-AA): -0.818; interaction score (4H3134-AA): -1.43; interaction score (4H510-AA): -1.76
-0.619	-0.142	-0.285	-1.23	-0.337	2.41	–	-0.842	DEIQQLEQKIQELKQENQELEWENQELEQ [O3-bN]	–
–	–	–	–	–	–	–	–	DEIQELEKKNEELKREIWELEKKNQELKR [P7A-bH]	interaction score (P8A-bH): 1.64; interaction score (P9A-bH): -0.442; interaction score (P7A-bH): -0.0377
